Measurements reported in US20250289897A1, “LEPTIN RECEPTOR AGONISTIC ANTIBODY AS MONO OR COMBO THERAPIES TO TREAT OBESITY” (ELI LILLY AND COMPANY, priority 2024, published 2025).

Biological target: T1, mouse-LEPR (Mus musculus, UniProt P48356)
T1 construct: introducing DNA plasmids encoding full-length LEPR of different species and STAT3-luciferase reporter gene into HEK293 cells; expressed in transfected cells; host or cells: HEK293 (HEK293-STAT3Luc-msLepR9)
T1 sequence (P48356 22-1162): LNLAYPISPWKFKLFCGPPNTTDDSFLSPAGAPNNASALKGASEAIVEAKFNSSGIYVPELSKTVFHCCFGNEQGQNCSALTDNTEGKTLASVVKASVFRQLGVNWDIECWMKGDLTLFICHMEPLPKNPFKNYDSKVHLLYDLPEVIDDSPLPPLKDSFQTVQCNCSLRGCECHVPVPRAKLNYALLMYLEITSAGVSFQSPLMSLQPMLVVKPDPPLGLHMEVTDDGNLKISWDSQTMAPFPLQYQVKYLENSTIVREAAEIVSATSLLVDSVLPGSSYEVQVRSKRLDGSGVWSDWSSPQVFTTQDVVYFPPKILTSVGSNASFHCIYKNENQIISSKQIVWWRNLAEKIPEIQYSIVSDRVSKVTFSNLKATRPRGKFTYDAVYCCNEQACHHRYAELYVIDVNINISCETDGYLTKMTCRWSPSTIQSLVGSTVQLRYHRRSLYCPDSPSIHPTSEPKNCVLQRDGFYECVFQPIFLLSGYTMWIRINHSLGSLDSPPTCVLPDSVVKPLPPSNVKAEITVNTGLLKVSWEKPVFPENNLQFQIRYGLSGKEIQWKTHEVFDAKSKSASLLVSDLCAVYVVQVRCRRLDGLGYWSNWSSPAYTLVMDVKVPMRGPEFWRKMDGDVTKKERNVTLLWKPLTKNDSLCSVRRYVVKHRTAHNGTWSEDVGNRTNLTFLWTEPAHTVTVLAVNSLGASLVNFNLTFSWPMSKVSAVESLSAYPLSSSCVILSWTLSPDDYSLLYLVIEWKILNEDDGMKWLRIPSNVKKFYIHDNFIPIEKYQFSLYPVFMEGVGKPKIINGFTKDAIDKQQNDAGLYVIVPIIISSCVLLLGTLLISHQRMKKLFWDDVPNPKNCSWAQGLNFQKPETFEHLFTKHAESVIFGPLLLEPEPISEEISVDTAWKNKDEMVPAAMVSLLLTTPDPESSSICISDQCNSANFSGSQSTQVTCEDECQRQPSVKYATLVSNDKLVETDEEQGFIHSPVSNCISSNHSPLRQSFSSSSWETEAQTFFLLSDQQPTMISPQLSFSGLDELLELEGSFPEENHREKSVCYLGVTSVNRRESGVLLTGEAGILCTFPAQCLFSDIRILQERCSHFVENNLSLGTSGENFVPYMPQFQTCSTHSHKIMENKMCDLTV
Assay: STAT3-luciferase reporter assay in HEK293-STAT3Luc-msLepR9 cells
Format: cell-based
From the text: LEPR is a cell surface single-pass transmembrane receptor. Activation of LEPR leads to phosphorylation of intracellular STAT3 (pSTAT3) and subsequent target gene transcription. To measure LEPR activation by anti-LEPR antibodies in the present disclosure, five independent STAT-luciferase reporter cell lines were established by introducing DNA plasmids encoding full-length LEPR of different species and STAT3-luciferase reporter gene into HEK293 cells (Table 4). […]
Before plating the cells for luciferase assays, the poly-D-Lysine coated 96-well plates (Corning Inc, #354651) were rinsed once with phosphate buffered solution (PBS). […] Cell lysing and One-Glo luciferase substrate solution (Promega, #E6120) were then added to each well, and relative luciferase units (RLUs) were measured on a ClarioStar plate reader. For each reporter cell line, positive control LEPR activation was calculated as the average RLUs stimulated by 20 nM recombinant human leptin protein (SEQ ID NO:27) minus the average RLUs of unstimulated cells and was set as maximum LEPR activation (100%). […]

- EC50 (antibodies at concentrations up to 90 nM, read-out: EC50 (nM) ± SEM): 0.0788 ± 0.017 nM
- Agonism (%) ± SEM (vs 20 nM recombinant human leptin, antibodies up to 90 nM): 116.17%
Substance: human leptin: recombinant human leptin protein (SEQ ID NO:27), positive control
